Data taken from the DeepSol protein solubility set.

Assay: soluble on expression in E. coli; label from the status in PepcDB or PDB records

Soluble on expression in E. coli, soluble:
MHHHHHHSSGVDLGTENLYFQSNAMKNIEKLEQSLTYEFKDKNLLIHALTHKSFKKSYNNERLEFLGDAVLDLVVGEYLFHKFAKDAEGDLSKLRAALVNEKSFAKIANSLNLGDFILMSVAEENNGGKEKPSILSDALEAIIGAIHLEAGFEFAKTIALRLIEKNFPQIDAKILIKDYKTKLQEITQGKIGQTPQYETVRAFGPDHLKQFEIALMLDGKELARAIAGSKKEAQQMAAKIALEKLGAL
MDPSSKPLREIPGSYGIPFFQPIKDRLEYFYGTGGRDEYFRSRMQKYQSTVFRANMPPGPFVSSNPKVIVLLDAKSFPILFDVSKVEKKDLFTGTYMPSTKLTGGYRVLSYLDPSEPRHAQLKNLLFFMLKNSSNRVIPQFETTYTELFEGLEAELAKNGKAAFNDVGEQAAFRFLGRAYFNSNPEETKLGTSAPTLISSWVLFNLAPTLDLGLPWFLQEPLLHTFRLPAFLIKSTYNKLYDYFQSVATPVMEQAEKLGVPKDEAVHNILFAVCFNTFGGVKILFPNTLKWIGLAGENLHTQLAEEIRGAIKSYGDGNVTLEAIEQMPLTKSVVYESLRIEPPVPPQYGKAKSNFTIESHDATFEVKKGEMLFGYQPFATKDPKVFDRPEEYVPDRFVGDGEALLKYVWWSNGPETESPTVENKQCAGKDFVVLITRLFVIELFRRYDSFEIELGESPLGAAVTLTFLKRASI
MAGEKAQKKGKEKWKEKTWYTVESPPYLGSKEVTVALGEDPESMVNRIVEVPISDLTGNFKKSNEKALFRITGCEGTKCKTIFIGHYIGDDYIRRLVRRRKERIDIIEDVKTSDGSIITVKIVVVSDGKLTNTKKSEIRKALTSFIVSKGSQLSYADFVRYLIGDDSYNDMVEATKNIYPLRKIEIRKSELVSLSGMQEPQKNEPAPGGEAIAQNLEHHHHHH
GHMEVTLIVFHAGSLSVPFQEVEKEFSEYAERNLGIKVSFQDEASGSVMAVRKVTDLGRKADVIGVADYTLIPQLLIPNYTDFYVLFATNEIVIAFTDKSRYVEEMKSNPDKWYEILAREDVRFGFSDPNQDPCGYRSLMVIKLADLYYGKEIFKELIEENTNIYSNGTQIYAPKEITVNPGKIVIRPKETDLLGLVESGSIDYIFIYKSVAKQHNLSYITLPSEINLGDFSKEKFYGQISITLGSTGKTIKAKPIVYGVTVLKDAPNREVAIEFLRYLLSENGKRIFEKNHQDFL
MSLNNKGSGLTPAQALDKLDALYEQSVVALRNAIGNYITSGELPDENARKQGLFVYPSLTVTWDGSTTNPPKTRAFGRFTHAGSYTTTITRPTLFRSYLNEQLTLLYQDYGAHISVQPSQHEIPYPYVIDGSELTLDRSMSAGLTRYFPTTELAQIGDETADGIYHPTEFSPLSHFDARRVDFSLARLRHYTGTPVEHFQPFVLFTNYTRYVDEFVRWGCSQILDPDSPYIALSCAGGNWITAETEAPEEAISDLAWKKHQMPAWHLITADGQGITLVNIGVGPSNAKTICDHLAVLRPDVCYIGHCGGLRKVRPLADYVLAHAYLRDDHVLDAVLPPDIPIPSIAEVQRALYDATKLVSGRPGEEVKQRLRTGTVVTTDDRNWELRYSASALRFNLSRAVAIDMESATIAAQGYRFRVPYGTLLCVSDKPLHGEIKLPGQANRFYEGAISEHLQIGIRAIDLLRAEGDRLHSRKLRTFNEPPFREGHHHHHH

Soluble on expression in E. coli, not soluble:
MGSDKIHHHHHHMNPLNLIECLEQKERYTYNEGLIIDFILSHTERVLHMSIYELAEATNSSTSTIVRLCKKTETSGFKEFKIRLSRDLEIHYQAIRNVDANMPFLAQDSDLLIAKKIAQLTTETVQSTQQLLTEAMLNKSIDLLLTAENILAVGVSNSYIRLTDFQTKLLRIQLFIHLIPYQAEQFYLAINATKNDVAILVSYSGNTAEIVNEARIFAEGGTPIIAITSDLNSQLAKYATVILPIPNVEHADFKVSTFSSQLAIEYILNVLYSCIFSRNFDKNYTSQKNTPTSILKF
MGSDKIHHHHHHMINLNGNSSSSRQVTFITHPSIQSKAFASYLSETLMAPVVLQNINKPLAQRLAKDSVILFDIAVSNKKLNGVWRDIIRLQADNPRLLIINSAQKYELYEMAQWPALYGVFRHDDDESRLIEGVKAVLNGEQTAELSVMHPAMYAADHASTPVENSPLTERECEILNELRCGATNLDIARALFISENTVRTHLYNVFRKLSVKNRTQAVSWANEHLRH
MPKIPITLITGFLGSGKTSFLSEYLNQTDHQGVALIINEIGQAALDQRILSVQYCGEKMLYLNAGCVCCNKRLDLVESLKATLNNYEWHGEILRRIIIETTGLANPAPILWTILSDTFLGVHFEIQSVVACVDALNAREHLTNNEAKEQIVFADSVLLTKTDLQNDSAALTKLKERIQALNPSAEIFDKRAIDYESLFSRKNRARNFMPLEHHHHHH
MAHHHHHHMVGAMHDIQVGFLDRCSVFQFTLTCTVLDFQKVAEPQPKSPGSLPSSTRTAPNPNGEEVEKHINKEQYTVRCLGSEAYTEALKNYLDDGCIVRVIGRLKTTEVVDAGKKQPFPCIIVEQGRWSTVSLVHSLRKQRRDWQLQNILTSVATLE
MGSDKIHHHHHHMSQQEFDVLVIGAGISGAALFYELARYTNIKNIALIEKYNTAATLNSKGTSNSQTIHCGDIETNYTLEKARKVKRTADMIVKYGLMQNAQNNFMFSHQKMALAVGDIECDYMKKRYEEFKELYPYIKFFDKAKIKQIEPKVVLGEDCNQDRPENICAMGVESGEVFTTVDFGKMSINLIEQAQKQNKNTFVAFNQEIIHIEKKDDIFILKTSNHQEYHAKSVVVNAGAHSLYLAHKMNLGMDKSCWPVAGSFYLTKQKLLNGKVYMVQNPKLPFAALHGDPDLLADMNTRFGPTALVIPKLERYHGLKSVPEFFEALKLDKTVLKVTFNMFKDATIRNYIFYNYLFELPFVDKSLFVKDAKKIVPSLKASDIYYAKGFGGVRPQVIDKTKGELMLGEASITETPGIIFNMTPSPGATSCLGNAERDAKLVCNYLGMEFNEDKFSSELL
MGSDKIHHHHHHMKIVFLAPFGIRPKGTVVARMVPLAAELQALGHRVTIVAPPYTNPEDSGHTEEIRGVRLRNIRLAPGGAALSAPVMAWRMYRAAREEEPDLIHLFKPKGYGGLAAMLHLLTASRSSPLFLDTDDWEGRGGMNALHDYSPAQRLLFAFQEEWLPPRVRGVTVASRELEARIAAMGVAPERLLYLPNCVDDQPLGNGARVRARLGIDGNAPVVLLYTRFFEFSQEDLHRVFAGLSRKVPGIRFLVVGTGRNREEELLAAAARAEGFADSLHIAGWVEPDELPHWLAAGDVALYPFADTLVNRAKCPAKLTELMRAGVPVVADRVGQIAEYVEDGISGILCRPSAPDEMIARIAELLADPVRRRAVGTAGRERILSRFNWRDAAARLDAFYDNLTRRRNLA
GGGVKAFAFIGALQVLEENGFSFTRVAGTSAGAIFASLVCSGYRSDELFSIMEQLDGKMFKDGGKVMPFPFAKWLRLYFKLGMYKGDQLEKWLIQVLGHKGVSTFADLPKGALKIVASDISRGRLIVLPDDLKDYGLIPERFSVARAVRMSCGIPYFFQPVKLYNRKRRGERSYVVDGGILSNFPIWL
MNLSFKINSMYICVHNMDRAINFYENLFNCKVTGKDEIYSVFDINGFRYGLFANKKTGEKKIWGNNCLPSFQVNDIDLILEKLKELNCPIVFPLTNIGKNKVLEFTDCEGNAIEITSPIKLEHHHHHH
MAHHHHHHMSVPSLRRSDRSGDPTRDRVHYVRAQRQHLVRETRMLQMALEELQEEAERENTEEALMRRGIDTTHRELLRCLLHLALAEQDSTRGAAAASGAQAQYDETSAIICEVLRRYKHEQDAFTQEAKQRLESIREEARQACMNVGDTLAVPQGEHAHSSGVGSVVEATDCDSLRSALEALREMQAEVDEETEATLLSIGRTLFC
MGSDKIHHHHHHMSQSMVGKHAMWPKENDVIFSISGRAQAAEKAFGMDNVINATIGALMDDSGKLITMKTVYEEYKALDNCEIGAYAALEGQPDYLEAVKKVFFRDYLPEGHIRVLASPGGSGAIKLAVWNYTNEGDEVLTSDWFWSPYVSIAEEANRKVVNYQLFDENRRFNFESFKEKFVNIAEKQGRVFTIINTPAHNPTGYSVADDEWDKILDLSKEVAKDKDKKIIFFVDSAYIDFAGDDDVCRKFFKKFSNLPENVLVLVGFSMSKGFTAYGMRMGAIICISSSEDVAEEFHYSCVHSCRANWSNCNRSAMAVLSNIVNDPKKFKEYEDEKEIYKNMLTRRADVFVKEAERVGLEILPYIAGFFVSIPCDNPKEVCEELTKHNLFAVPLKMGLRFAVCAVSEDKCKKAPSIIKEALESLEVKINN
LKIKMPDDIFVKKELILKDVIKGQIGYMYLPSMSSKNGSINNDLKIIGDYINTLEKHKALIIDIRGNLGGSDRYWQGIVSKLIKNDVKINGYRIYRNNNEIVKKYTNARNIKLNPVENLPASVKENAPKEIIKDFNDFEDTSYTIKSTDDSKFKGNIYLLVDRKIYSSSESFAMFCKENKFATLVGETTGGDGGCIDPVLFNLKNSGLIVRMASCMYLNKNGICDEEFKTIPEFKVKDCKRTADFKDDNCIRKALELENINY
MGSDKIHHHHHHNRDPHEGERGLTVAIDNTQCPDVPIGAIKLYIYGTGGNLYATYNYADARGIASVLHPLEAGHYTVAVVINADEEAAETSTLTALHEWLEIEMSHETNLLSGIAEVNVTEDGISPVTVFLQRGVFTLSTLRLQLTLPAPKLPDYTPEKSKTRAAGTANTIRCVAELCKAGTDIVVLHKAVTPVPQADGTYLVELELAEGSYDLRLWTDYARADNPLADTFYHTESLKAVTIVTKPYTANTDAKDAAYYNKSDITLSKEGATMNVQLQRPLAKYRLIAKDVENYRKLMEAKPDIYPPLKNLTVKVLYEGYFPSGFNVSTGKPNDAVGGISYSQVSLHYNDVDNEVLLGGDWVLVNGTESLVNVTVTVTDNLGNTLCRASGVKINYRNSHLTTVYGNFLTAGINKGGIDINTEWSGIYNVWF
MGSDKIHHHHHHMKSRKFPIRFENFSLSVDGKSVLENITLSFVEGMNVLYGPRGSGKSSLLRSIVKLNTEIFNEISRSGSVYLFDQNVEDLDDIYVRKNALYLDTSFIDAMNQYTFDEFLKLALKRKISLENFSEKLDDLGILRMLIRGQKTPLSVFSPAEKISLLLFILEQKKPRVILMDCLLDHLDDENLEKIMDMFLKMKEERTFVISTRILQRFLYIADLLVILNNGRINYTGSPKDFVLRM
MAHHHHHHMSTNRVATVVAGLDGANPVKRERHPAWYPPLKLDGNGLKVMNSLTETLEDFAPRDGRVVRWYTCGPTVYDLSHMGHARAYLTFDIIRRIMEDYFGYSVIYQMNITDIDDKIIKRARVNKLLVDFKEEELRHSDVAKLMAFTAEAVAAAESGLAKRKAALVEPIAKGTNSRAKADREEKLLEVQLKESQLVETKVKIAAAKDDFAALFAAASGVNGDLLDERSGHSVSDQQIFEDHARKYERAFFEDMQRLGIREPDIVTRVTEYVPQVVEFVQKIIDNGFAYAGETSVFFDTEAYIRAGHDYPKLKPGGDRNTTEDEMAEGEGVLSKGIEGEKRSPNDFALWKFSKPGEPRWPSPWGEGRPGWHIECSVMASDILGENMDIHSGGWDLKFPHHDNECAQSEACNLHSQWVNYFLHCGHLHIKGLKMSKSLKNFITIRQALDELGVTARTMRLLFLANPWNKPMNFSDQSLDEAKEKERVLRAFFGSVDIVLRADNWKATQGVNKHDRELLSKWVEAEAAVHAALQDNFDTVVALQQLMSLVAATNQYLLSGERPSATLVRKVGCYVTKMFRIFGVVEGSDDVGLQKQGSDDGEARFIEVVNTLVRFRDEVRNAAKDHKVVAGFLPLCDKVRDEWLVDAGVRLEDNPAGPTTWKSDEPALLQKELAERRAQQEGDRQRRLANQAETKRKLVEKWRQFTYPPSEYFRRQDEQRVEKKYTAYDDVTGLPTMTAAGEEVSEKEAKKLSKEQAKYAKSYDEFIGKGGVSWIQEQEAELASMVAELEGSK
